# Laboratory results reported in publication doi:10.1101/2022.04.26.489478, “Shuffled ATG8 interacting motifs form an ancestral bridge between UFMylation and C53-mediated autophagy” (bioRxiv, 2022).
# T1: mCherry tagged HsC53 (human, UniProt Q96JB5 1-506)
# T1 construct: C53 (CDK5RAP3), Homo sapiens; also called human C53; mCh-HsC53; source: E. coli Rosetta2 (DE3) pLysS, purified (HisTrap, ion exchange, SEC)
# T1 sequence (looked up): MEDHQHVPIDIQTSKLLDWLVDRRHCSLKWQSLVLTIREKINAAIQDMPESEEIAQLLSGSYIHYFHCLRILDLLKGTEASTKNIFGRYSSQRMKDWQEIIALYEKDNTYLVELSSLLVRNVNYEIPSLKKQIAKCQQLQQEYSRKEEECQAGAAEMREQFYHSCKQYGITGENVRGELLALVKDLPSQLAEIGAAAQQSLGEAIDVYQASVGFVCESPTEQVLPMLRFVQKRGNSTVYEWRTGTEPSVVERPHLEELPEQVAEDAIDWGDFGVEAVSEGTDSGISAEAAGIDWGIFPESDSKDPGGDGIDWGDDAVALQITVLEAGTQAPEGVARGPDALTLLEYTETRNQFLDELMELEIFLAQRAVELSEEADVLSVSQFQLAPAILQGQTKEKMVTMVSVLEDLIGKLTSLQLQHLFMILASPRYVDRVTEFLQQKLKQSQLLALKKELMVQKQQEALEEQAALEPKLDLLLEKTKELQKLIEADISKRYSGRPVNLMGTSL
# Biological target: T1, mCherry tagged HsC53
# Assay: microscopy-based on-bead protein-protein interaction assay; GST-tagged bait (2 µM) on Glutathione Sepharose 4B beads, 1 µM mCherry tagged partner with or without competitor, 25 mM HEPES pH 7.5, 150 mM NaCl, 1 mM DTT, 30-60 min at RT, confocal imaging; fluorescence normalized to the control condition
# Details: both partners purified
binder,measurement,value
"GST-GABARAP (natural protein, human, UniProt O95166 1-117, looked up, GABARAP, human ATG8 isoform; also called human ATG8 isoform GABARAP; source: E. coli Rosetta2 (DE3) pLysS; in bacterial lysate (pull-downs) and purified (on-bead assays)) MKFVYKEEHPFEKRRSEGEKIRKKYPDRVPVIVEKAPKARIGDLDKKKYLVPSDLTVGQFYFLIRKRIHLRAEDALFFFVNNVIPPTSATMGQLYQEHHEEDFFLYIAYSDESVYGL",binding result,binds
